Measured values from patent US20080152587A1 (Amgen, published 2008).
Where a chain is given by its changes, count along the chain named.

T1: mouse uPAR on the surface of NCTC L929 cells (mouse, UniProt P35456 24-298)
T1 construct: whole, on cells; also called cell surface mouse uPAR
T1 sequence (looked up): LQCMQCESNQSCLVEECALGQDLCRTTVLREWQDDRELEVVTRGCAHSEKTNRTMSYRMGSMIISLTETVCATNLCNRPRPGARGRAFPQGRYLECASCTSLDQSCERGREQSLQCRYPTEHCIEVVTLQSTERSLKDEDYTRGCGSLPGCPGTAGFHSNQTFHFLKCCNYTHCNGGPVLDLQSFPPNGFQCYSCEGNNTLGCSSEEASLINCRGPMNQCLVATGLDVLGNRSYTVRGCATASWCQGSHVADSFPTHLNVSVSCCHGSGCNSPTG

T2: murine uPAR (form not stated) (mouse, UniProt P35456 24-297, limits assumed)
T2 construct: also called mouse uPAR
T2 sequence (looked up): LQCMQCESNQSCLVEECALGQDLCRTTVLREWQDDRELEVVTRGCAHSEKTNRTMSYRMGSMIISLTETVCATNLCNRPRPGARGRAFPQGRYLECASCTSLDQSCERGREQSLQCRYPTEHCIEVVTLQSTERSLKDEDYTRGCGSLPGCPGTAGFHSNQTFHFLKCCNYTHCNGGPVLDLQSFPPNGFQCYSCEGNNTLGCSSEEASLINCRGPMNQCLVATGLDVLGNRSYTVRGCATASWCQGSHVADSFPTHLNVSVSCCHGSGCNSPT

T3: human Ly6e with a myc tag, expressed in HEK293T cells (human, UniProt Q16553 21-101)
T3 construct: whole, on cells; not shown: myc tag fused on the molecule
T3 sequence (looked up): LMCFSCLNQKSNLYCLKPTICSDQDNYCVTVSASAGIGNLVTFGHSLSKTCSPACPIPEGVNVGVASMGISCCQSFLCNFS

B1: anti-uPAR monoclonal antibody 1.4.2 (antibody, V domains shown)
VH: EVQLVESGGGLVQPGGSLRLSCAASGFTFSSYDMHWVRQATGKGLEWVSAIGTAGDTYYPGSVKGRFTISRENAKNSLYLQMNSLRAGDTAVYYCAREGDYSNYFTMVRGVTYGMDVWGQGTTVTVSS
VL: DIQLTQSPSSLCASVGDRITITCRASQGISKYLAWFQQKPGKAPKSLIYGASSLQSGVPAKFSGSGSGTDFTLTISSLQPEDFATYYCQQYNSYPLTFGGGTKVEIK
B2: anti-uPAR monoclonal antibody 1.61.1 (antibody, V domains shown)
VH: B1 VH with M107R
VL: B1 VL with L4M, C12S, I19V, A60S
B3: anti-uPAR monoclonal antibody 1.100.1 (antibody, V domains shown)
VH: EVQLVESGGGLLQPGGSLRLSCAASGFTVRNNYMNWVRQAPGKGLEWVSVIYTGGSTYYADSVKGRFTISRDNSKNTLYLQMNSLRAEDTAVYYCAREGKLAGMDVWGQGTTVTVSS
VL: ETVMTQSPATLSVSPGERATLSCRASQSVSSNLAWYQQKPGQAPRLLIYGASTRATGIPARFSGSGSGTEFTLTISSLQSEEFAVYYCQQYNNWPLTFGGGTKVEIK
B4: anti-uPAR monoclonal antibody 4.13.1 (antibody, V domains shown)
VH: EVQLLESGGGLVQPGGSLRLSCAASGFTFSSYAMSWVRQAPGKGLEWVLGISGSGGSTYYADSVKGRFTISRDNSKNTLYLQMNSLRAEDTAVYYCAKDGYGDYVGWYFDLWGRGTLVTVSS
VL: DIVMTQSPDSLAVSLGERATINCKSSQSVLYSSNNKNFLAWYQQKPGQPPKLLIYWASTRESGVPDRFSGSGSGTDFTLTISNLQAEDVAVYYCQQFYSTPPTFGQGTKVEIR
notes: also called 4.13.2
B5: anti-uPAR monoclonal antibody 1.113.2 (antibody, V domains shown)
VH: QVQLVESGGGVVQPGRSLRLSCAASGFTFSSYGMHWVRQAPGKGLEWVAVIWYDGSNKYYADSVKGRFTISRDNSKNTLYLQMNSLRAEDTAVYYCARDLAALYYYYGMHVWGQGTTVTVSS
VL: EIVMTQSPATLSVSPGERATLSCRASQSFSSNLAWYQQKPGQAPRLLIYGASTRATGIPARFSGSGSGTEFTLTISSLQSEDFAVYYCQQNNNWPRTFGQGTKVEIK
B6: anti-uPAR monoclonal antibody 1.41.1 (antibody, V domains shown)
VH: QVQLVESGGGVVQPGRSLRLSCAAPGFTFSSYGMHWVRQAPGKGLEWVAVIWYDGSQKYYADSVKGRFTISRDNSKNTLYLQMNSLRAEDTAVYYCARGMTYYYYYGMDVWGQGTTVTVSS
VL: B5 VL with T10I, F29V, N32K, A34D, N91Y
B7: anti-uPAR monoclonal antibody 4.50.1 (antibody, V domains shown)
VH: QVQLVESGGGVVQPGRSLRLSCAASGFTFSSYGMHWVRQAPGKGLEWVAVIWYDGSNKDYADSVKGRFTISRDNSKNTLYLQMNSLRAEDTAVYYCARDMIVVVITYAFDIWGQGTMVTVSS
VL: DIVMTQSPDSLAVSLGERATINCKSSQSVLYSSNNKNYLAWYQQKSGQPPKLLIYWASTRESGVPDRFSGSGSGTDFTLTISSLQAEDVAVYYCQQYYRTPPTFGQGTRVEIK
notes: also called 4.50.2
B8: anti-uPAR monoclonal antibody 3.8.3 (antibody, V domains shown)
VH: EVQLVESGGGLVQPGGSLRLSCAASGFTFSSYWMSWVRQAPGKGLEWVANIKQHGSEKYYVDSVKGRFTISRDNAKNSLYLQMNSLRAEDTAVYYCAREEAYYYDNSGYYWYFDLWARGTLVTVSS
VL: DIQMTQSPSSVSASIGDRVTITCRASQGISSWLAWYQQKPGKTPKLLIYAASSLQSGVPSRFSGSGSGTDFTLTISSLQPEDFATYYCQQADSFPWTFGQGTKVEIK

Experiments:
[1] = biological target: T4, human urokinase-type plasminogen activator receptor (uPAR, CD87), cell-bound (human, UniProt Q03405 23-305); test: cell-based or functional assay
[2] = biological target: T5, soluble recombinant human uPAR/His6 (R&D Systems, Cat. # 807-UK-100) (human, UniProt Q03405 23-303); test: low resolution Biacore
T5 construct: range 1-303; Bought protein; also called soluble uPAR; hu-uPAR
Description: (§1) A high-density goat anti-human antibody surface over a CM5 Biacore™ chip was prepared using routine amine coupling. […] Each mAb was captured on a separate flow cell using a 30-second contact time at 10 μL/min followed by a 5-minute wash at a 100 μL/min flow rate for stabilization of the mAb baseline. […] All antigen samples were prepared in the running buffer.

[3] = biological target: T1, mouse uPAR on the surface of NCTC L929 …; test: FACS, NCTC L929 mouse cells
Description: (§2) To make the mouse cross-reactivity results conclusive, direct binding of the mAbs to cell-bound mouse uPAR was measured using FACS analysis. The mouse cell line derived from the connective tissue, NCTC L929, was employed for FACS analysis. The harvested cells were resuspended at 50,000 cells/well using FACS buffer into a V-bottom plate which was put on ice. […] After washing, Cy5-labeled goat anti-human IgG Fc at 5 μg/ml and 7AAD at 5 μg/ml was added. The mixtures were incubated for 15 min on ice, washed and resuspended in cold FACS buffer for FACS analysis.

[4] = biological target: T2, murine uPAR (form not stated); test: summary column Murine X-reactivity
[5] = biological target: T1, mouse uPAR on the surface of NCTC L929 …; test: FACS, NCTC L929 mouse cells, mAb 6.25 µg/ml
Description: as §2

[6] = biological target: T3, human Ly6e with a myc tag, expressed in …; test: FACS, HEK293T cells expressing Ly6e, supernatant 1:2
Description: The reactivity of the antibodies to the HEK293T transfected to express Ly6e was determined by FACS analysis, using 1:2 hybridoma supernatants, and probed with goat anti-human γ chain conjugated with Cy5 (2.5 mg/ml, Jackson Immune Research). Binding of an anti-myc antibody (10 μg/ml, Invitrogen) to the transfectants served as a positive control, and binding of this antibody to the (Ly6e negative) parental cells served as the negative control.

[7] = biological target: T4, human urokinase-type plasminogen …; test: FACS competition with FITC-tc-uPA, line material
Excerpt: (§3) Briefly, murine fibroblast L929 cells (ATCC) were transfected to express human uPAR.

[8] = biological target: T5, soluble recombinant human uPAR/His6 …; test: limited antigen ELISA, uPAR coat 20 ng/mL, sample 1:25
Description: (§4) ELISA plates were coated with a lower amount ofuPAR in comparison with the High Antigen Quantitation assay described below (320, 160, 80, 40 and 20 ng/mL). Samples containing one concentration of antibody (Ab) (1:25 dilution) were incubated overnight to allow Ab binding to approach equilibrium.

[9] = biological target: T5, soluble recombinant human uPAR/His6 …; test: limited antigen ELISA, uPAR coat 80 ng/mL, sample 1:25
Description: as §4

[10] = biological target: T4, human urokinase-type plasminogen …; test: FACS, B300.19 cells expressing human uPAR, anti-human gamma Cy5
[11] = biological target: T5, soluble recombinant human uPAR/His6 …; test: low resolution Biacore, mAb captured by goat anti-human, hu-uPAR 312 nM;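 further: surface plasmon resonance on a CM5 chip with goat anti-human antibody surface made by amine coupling, each mAb from supernatant captured per flow cell, kinetics fitted including mass transport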
Description: as §1
A mass transport coefficient was used in fitting the data.

[12] = biological target: T4, human urokinase-type plasminogen …; test: FACS competition, FITC-tc-uPA on L929 cells expressing human uPAR, supernatant 1:2
Excerpt: as §3

[13] = biological target: T6, cynomolgus monkey uPAR, cell-bound (cynomolgus monkey, UniProt Q9GK78 23-305); test: FACS, GeoMean; cynomolgus uPAR expressed on 293T cells; antibody concentration not given
T6 construct: whole, on cells; also called cyno-uPAR

[14] = biological target: T4, human urokinase-type plasminogen …; test: cell-based or functional assay; remark: listed apart in the source
[15] = biological target: T4, human urokinase-type plasminogen …; test: FACS, U937 cells, mAb 5 µg/ml on ice, alexa647 goat anti-human F(ab), not stripped
Description: A cell suspension containing 100,000 cells was pipetted into each well of a V-bottom plates in duplicate. Two V-bottom plates were prepared, one to be kept at 37° C. during internalization with antibody complex, and the other to be incubated at 4° C. Each of the eight uPAR mAbs was incubated with U937 cells at 5 μg/ml on ice for 15 min. Incubation on ice was necessary to prevent internalization of the primary mAbs. The cells were then washed with cold FACS buffer. Cells were subsequently incubated on ice in 100 μl of 5 μg/ml alexa647-labelled goat anti-humanF(ab) (Invitrogen catalogue number A21249) in cold FACS buffer for 15 min. This allowed the goat FAB bind to the bound uPAR mAbs without permitting any internalization. After a 15 minute incubation on ice, one plate was kept on ice, while the other plate was incubated at 37° C. for 1 hour.
Following the 1 hr incubation with the mAb-FAB complex, the cells were washed twice with cold 5% FACS buffer, and 200 μl of Tris(2-carboxyethyl)phosphine HCl (TCEP) was added to each well as a stripping agent. The plates were both incubated with TCEP on ice for 1 hour, followed by washing and resuspending with FACS buffer. 4 μl of 7-Amino-Actinomycin D (7AAD) was added to each well, followed by 10 min incubation on ice before FACS analysis was conducted.

T6 sequence (Q9GK78 23-305): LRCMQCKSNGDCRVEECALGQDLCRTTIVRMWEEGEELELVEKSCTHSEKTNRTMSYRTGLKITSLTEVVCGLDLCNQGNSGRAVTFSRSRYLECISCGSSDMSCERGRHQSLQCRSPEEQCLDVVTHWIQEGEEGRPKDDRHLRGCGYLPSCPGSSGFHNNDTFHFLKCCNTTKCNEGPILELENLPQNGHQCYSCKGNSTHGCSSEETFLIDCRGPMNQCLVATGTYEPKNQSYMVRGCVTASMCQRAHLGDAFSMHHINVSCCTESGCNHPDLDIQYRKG
T4 sequence (Q03405 23-305): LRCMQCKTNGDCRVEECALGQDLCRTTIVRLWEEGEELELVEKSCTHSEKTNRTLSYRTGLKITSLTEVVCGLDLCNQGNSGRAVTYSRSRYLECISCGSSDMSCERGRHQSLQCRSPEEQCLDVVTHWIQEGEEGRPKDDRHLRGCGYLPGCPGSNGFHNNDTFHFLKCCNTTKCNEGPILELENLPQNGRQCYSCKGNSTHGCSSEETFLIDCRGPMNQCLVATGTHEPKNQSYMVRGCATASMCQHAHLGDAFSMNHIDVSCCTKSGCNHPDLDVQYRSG
T5 sequence (Q03405 other isoform, or with tags, fused parts or gaps limits assumed, form in doubt): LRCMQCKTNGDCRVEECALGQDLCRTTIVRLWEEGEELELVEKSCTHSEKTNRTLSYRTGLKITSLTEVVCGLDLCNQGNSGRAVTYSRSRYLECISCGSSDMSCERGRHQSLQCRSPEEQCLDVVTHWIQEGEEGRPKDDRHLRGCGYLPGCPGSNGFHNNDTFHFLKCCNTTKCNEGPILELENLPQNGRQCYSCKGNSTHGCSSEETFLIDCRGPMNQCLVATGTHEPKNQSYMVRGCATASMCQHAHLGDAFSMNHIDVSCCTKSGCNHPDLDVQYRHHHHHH

Binder | Plasminogen activation inhibition (IC50, ug/ml) [1] [µg/mL] | Kd [2] [nM] | binding result [3] | binding result [4] | X Geo Mean [5] | binding result [6] | Human uPAR/uPA binding inhibition (%, line material) [7] [%] | LA at 20 ng/ml [8] | LA at 80 ng/ml [9] | gCy5 Geo Mean Pos Cells [10] | Kd [11] [nM] | koff [11] [s⁻¹] | kon [11] [M⁻¹ s⁻¹] | uPA/uPAR binding Inhibition % [12] [%] | binding result [13] | inhibition of plasminogen activation on U937 cells [14] [%] | geo mean cold - TCEP [15]
B1 | 0.075 | 8.7 | no binding (tested: 6.25 µg/ml) | no binding | 12.4 | no binding (tested: GeoMean ratio 1.95) | 69 | 0.16 | 0.66 | 419 | 8.7 | 0.00096 | 110000 | 69 | binds | – | –
B2 | 0.119 | 2.7 | no binding (tested: 6.25 µg/ml) | no binding | 9.7 | no binding (tested: GeoMean ratio 1.95) | 69 | 0.27 | 1.99 | 559 | 2.7 | 0.00025 | 94000 | 69 | binds | – | –
B3 | 0.061 | 2.3 | no binding (tested: 6.25 µg/ml) | no binding | 9.89 | no binding (tested: GeoMean ratio 1.95) | 78 | 0.27 | 2.15 | 521 | 2.3 | 0.00017 | 75000 | 78 | binds | – | –
B4 | 0.077 | 12.6 | no binding (tested: 6.25 µg/ml) | no binding | 11.2 | no binding (tested: GeoMean ratio 1.95) | 78 | 0.09 | 0.24 | 28.2 | 12.6 | 0.0012 | 95000 | 78 | – | > 90 | 37.4
B5 | 0.775 | 4.6 | no binding (tested: 6.25 µg/ml) | no binding | 10.2 | no binding (tested: GeoMean ratio 1.95) | 75 | 0.53 | 1.8 | 511 | 4.6 | 0.00013 | 28000 | 75 | binds | – | –
B6 | 0.181 | 3.9 | no binding (tested: 6.25 µg/ml) | no binding | 9.59 | no binding (tested: GeoMean ratio 1.95) | 74 | 0.27 | 1.48 | 422 | 3.9 | 0.00013 | 33000 | 74 | binds | – | –
B7 | 0.104 | 2.2 | no binding (tested: 6.25 µg/ml) | no binding | 8.92 | binds | 67 | 0.21 | 0.64 | 402 | 2.2 | 0.00026 | 120000 | 67 | binds | > 90 | 42.1
B8 | 0.328 | 3.1 | – | no binding | – | no binding (tested: GeoMean ratio 1.95) | 70 | 0.67 | 2.57 | 451 | 3.1 | 6.8e-05 | 22000 | 70 | – | – | –
